The subject of the series is NG-RYBP R47A/R53A/R56A (Homo sapiens). Briefly: EMSA. To be noted: apparent Kd, n=3; value assigned by fourfold loss; H2A K119 monoubiquitinated histone; DNA unmodified; EMSA: 25 mM Tris-HCl pH 7.5, 50 mM NaCl, 0.05% Tween 20, 5 mM MgCl2, 4% glycerol, 0.2 nM nucleosome, 10 min on ice, 1% agarose 0.4x TBE; cryo-EM binding: 50 mM ….

For the substance NucH2Aub1 (EMSA, 201 bp 601), the Kd was 10 nM.

Source of the values: article PMC11257959.
